# Data as given in PMC7831379.
# Biological target: pre-stabilized HIV-1 CA A14C/E45C/W184A/M185A hexamer (HIV-1)
# Assay: crystal structure
substance,measurement,value
pre-stabilized HIV-1 CA A14C/E45C/W184A/M185A hexamer (natural protein),stoichiometry N,6
